# Test results taken from the supplement of paper PMC9170038.
# Test system: MS2 coat protein
# Experiment: apparent KD of MS2 coat protein; designed switch direction (-1 OFF switch, 1 ON switch): 1; higher = weaker reporter binding
# In short: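 Stalled E. coli RNA polymerase transcribed designed RNA switches on Illumina chips, which were then titrated with SNAP-549-labelled MS2 coat protein, doubling from 0.7 or 1.5 nM to 3 µM. Steps lasted from 0.8–1.5 h at the lowest concentration to 10–20 min at the highest. The apparent KD is each design's median over clusters of curve-fitted normalised fluorescence.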
# [1] = Eterna round: R95, input ligand: FMN 200 uM
# [2] = Eterna round: R95, input ligand: microRNA oligo, concentration not stated
# [3] = Eterna round: R95, input ligand: none
# [4] = input ligand: microRNA oligo, concentration not stated
Sequence,apparent KD of MS2 coat protein [1] [nM],apparent KD of MS2 coat protein [2] [nM],apparent KD of MS2 coat protein [3] [nM],apparent KD of MS2 coat protein (input ligand: FMN 200 uM) [nM],apparent KD of MS2 coat protein [4] [nM],apparent KD of MS2 coat protein (input ligand: none) [nM]
UACAAUCUAUCUGAGGAUAUCAUGAUUAUAACAUGAGGAUCACCCAUGUGCAGGAAAACUGCAUAUGAGAAGGCAGAUAGAUUGU [salish99_ss2_r3_069] (puzzle: Same State 2),228,1630,110,,,
CGGCGCUGUCGAGAGGAUAUGCGGUGAUGGACAUGAGGAUCACCCAUGUUAGCGAUAGCAUCACGGUAGAAGGCUCUACGGCUGG [Soteed Omei mod 20] (puzzle: Same State 2),10.7,18.6,26.2,,,
"GUGGUCAGACAUGAGGAUCACCCAUGUGGAAUAAAUAACGUCAAGGAUAUAUAAUAUAGGAUAUAAUAGAAGGUGAGAUUGGUG (Eterna round: R96, puzzle: Same State NG 3)",,,,108,107,119
UAUGCACAUGAGGAUCACCCAUGUGGUAAGACCACAGGAUAUCACCUCGGACGUGCGAUGUGAGAAGGGUGAUGGU [Same State 1 - Mod of Vinnie Anrelari v.3] (puzzle: Same State 1),491,289,379,,,
"AUUAACUUGAGAGGAUAUGUAGAGGAUCACCCUACAGAAGGCUCGUUAGAGAGGAUAUGUAGAGGAUCACCCUACAGAAGGCUC [pwkr ssNG DX.9] (Eterna round: R96, puzzle: Same State NG 1)",,,,95.1,82.4,88.7
UACAAUCUAUCUGAGGAUAUCAUGAAUAAAACAUGAGGAUCACCCAUGUGCAGGAAAACUGCAUAUGAGAAGGCAGAUAGAUUGA [Mat - Same State 2 - Mod - D12] (puzzle: Same State 2),45.9,411,1450,,,
"GAGAGAGGGUGAGGAUAUUUGGUGAUAAUGAUGGGAGAAGGCACAGACAUGAGGAUCACCCAUGUGGGAAUAAUCCAGAGAGAG [Parity 11 - Jieux - Same State NG 1] (Eterna round: R96, puzzle: Same State NG 1)",,,,582,182,410
CCAUGGUAACAUGAGGAUCACCCAUGUACAAGCUUUUUGCUCGGUUUUAUCCCGGGCCCGGAUUACACGGGCCCGGG [Initial Design] (puzzle: Sensor for hsa-mir-208a version 2),41.4,50.7,33.6,,,
UAGAGAGGAAGCGAGGAUAUCGUGUUAGGUACAUGAGGAUCACCCAUGUUGUAGGUAGAGGUAGGCGAGAAGGCGCAGGAGAGGU [JR_SS2_Sub094] (puzzle: Same State 2),33.4,38.8,41.4,,,
"AGCUAUUACGAAGGAUAUUGUGACAUGAGGAUCACCCAUGUCUUCAUGAUUUAUUGUGAUCACGUCGAGAAGGUUGUACUAACA [SameState NG2 #28] (Eterna round: R96, puzzle: Same State NG 2)",,,,50.5,56.3,57.6
"AGUCCACGCUGACGUGGACAAAAGCAUGUACAUGAGGAUCACCCAUGUCAUGUACAAGCUUUUUGCUCGUCUUAAAA [Mat - hsa-mir-208a - Mod of JL - D17] (Eterna round: R96, puzzle: Sensor for hsa-mir-208a)",,,,346,13.2,447
"CGUCCAGCCUGAGCUGGACAAAAGCAUGUACAUGAGGAUCACCCAUGUUCAUGUACAAGCUUUUUGCUCGUCUUAUG [salish99_208a_r3_054] (Eterna round: R96, puzzle: Sensor for hsa-mir-208a)",,,,485,16.4,607
"AUGGUCAAGUGUGAGGAUAUCCAUGCUCCCACAUGAGGAUCACCCAUGUCUUAAAGGGCGUAAAGGGAGAAGGUACGAACGCCAC [Edatxein] (Eterna round: R96, puzzle: Same State 2)",,,,73.1,49.2,80.6
UCUUGGUUUUUGCUCGUUUUUUGUGUUGAACAUGAGGAUCACCCAUGUAUUAUACGAUCCGGUUUAAUAAUAAUCCG [JMF 80] (puzzle: Sensor for hsa-mir-208a),23.7,16.1,27.2,,,
"AUGAAGAAUUAAGGAUAUUGAUUACAUAUGUUUAACAUGAGGAUCACCCAUGUGGGUUGCGGUAUCGAGAAGGUAAAAUAAUAG [Mat - same State NG 2 - JL mod - D85] (Eterna round: R96, puzzle: Same State NG 2)",,,,187,123,158
"UGAAUAGUUACAGGAUAUCAUGCGAAAAUUGCGUGAGAAGGGUGGGUGUUGUGCUCAAAGUGCUACAUGAGGAUCACCCAUGUU [SameState NG1 #40] (Eterna round: R96, puzzle: Same State NG 1)",,,,1720,99.3,497
"GCCGCGUUUCGCGCCUACAUGAGGAUCACCCAUGUAUGUAGGCAGGAUAUCGUUUGCUUUGCAAACGAGAAGGGCUGUUGUGGC [salish99_SSNG3_R04_009] (Eterna round: R96, puzzle: Same State NG 3)",,,,79.5,217,227
"GCGGAAACUCACAUGAGGAUCACCCAUGUUCCGGAAACGGCACAGGAUAUCUGUCCGAAAAGGUCAGAGAAGGGUGUAAUCCGC [Fiskers NG3ss - 90] (Eterna round: R96, puzzle: Same State NG 3)",,,,572,101,79.6
"UGAAUAGUGAUAGGAUAUACAUGAGGAAUCCUCGUAGAAGGAUCAUAACAUGAGGAUCACCCAUGUAGCCGUCAGAAGACGGCA [Mat - Same State NG 1 - JL mod - D57] (Eterna round: R96, puzzle: Same State NG 1)",,,,94.6,284,178
"CAGGCGCAACAUGAGGAUCACCCAUGUGCUAACUUAACAGGGCAGGAUAUGGAAGCUCUAUGUCUCCAGAAGGGCUGGCGGAGC [Eternabot solution 38] (Eterna round: R96, puzzle: Same State NG 3)",,,,48.2,32.6,53.3
AAGAGAGAAAUACAGGAUAUGAGGAGAGGAACAUGAGGAUCACCCAUGUGAGAGAAAGGGAAGAAUCAGAAGGGUAGAGAAGAGA [JR_SS2_Sub002] (puzzle: Same State 2),31.8,47,73.8,,,
"GCGCACGAUCACAGUAACAUGAGGAUCACCCAUGUGUUACCGGAGGAUAUGCAAGCCCAUGCAGCGCAGAAGGCCGGGAACGUA [Eternabot solution 24] (Eterna round: R96, puzzle: Same State NG 3)",,,,151,131,147
"AGCGAGAUAGGCGAGGAUAUGCUUUUUUGCACAUGAGGAUCACCCAUGUCUUUGUUUUUUGUUUUGCAGAAGGCGCAUUCUCUUU [ak unbound state multiloop] (Eterna round: R96, puzzle: Same State 2)",,,,46.1,15.8,26.1
GGCUAUCGCGUACGAUAGCUUAGGCAUGUACAUGAGGAUCACCCAUGUCAUGUACAGGCUUGUUGCUCGUCUUAUUG [JL-shm-2.37 JL mod] (puzzle: Sensor for hsa-mir-208a),202,15.8,291,,,
"GUUACAUGAGGAUCACCCAUGUGUGUGUGGGAGUAAGUGGCUUAGGAUAUCUAUGAUUUAAGUUAAGAGAAGGAAGAUUGUUGU [SS-NG3-LRO02] (Eterna round: R96, puzzle: Same State NG 3)",,,,194,204,272
"GUGGUCUGACAUGAGGAUCACCCAUGUGGAAUAAAUACGGGUUAGGAUAUCUUGAGGAUCACCCAAGAGAAGGGAUGGAUGGUC (Eterna round: R96, puzzle: Same State NG 3)",,,,,71,
"GCUCCAAACACAGGAUAUGGAAUCUGAUUCAUGCGAGUGACAUGAGGAUCACCCAUGUCCGGCAGCCAGAAGGGUGGGAAACAU [Eternabot solution 27] (Eterna round: R96, puzzle: Same State NG 2)",,,,184,151,201
AUAUAACAUGAGGAUCACCCAUGUCACUAAAGUCGAGGAUAUGGGCAGGUUAUAUCCGAACCAGAAGGCGAAUUAU [SS1 Teenbexe 6] (puzzle: Same State 1),,163,,,,
UGCUAUUGUAUAUUGGUGCAAGCUUUUUGACAUGAGGAUCACCCAUGUACUCGUCUUAUGUGCAGUCCGUAGACUGC [JL-shm-2.24 Brourd mod] (puzzle: Sensor for hsa-mir-208a),47.8,13.4,45.6,,,
"CCGUAAUAUGGAGGAUAUGGAGCCUUAUUGGCUCCAGAAGGUCAAAACAUGAGGAUCACCCAUGUAUCGGCGGUCAAUAGACCG [Eli NG1ss - 74] (Eterna round: R96, puzzle: Same State NG 1)",,,,42.1,53.3,91.2
